Test results as given in patent publication US20100330100A1.
Read-outs that look alike come from different tables or passages of the source.

What was measured:
Assay in all cases: whole cell ELISA on immobilized PA103 strain, 50 µg/well IgG
[1] = biological target: PA4710 protein on the cell surface of Pseudomonas aeruginosa PA103 strain (Pseudomonas aeruginosa)
[2] = biological target: PA4710 protein on the cell surface of Pseudomonas aeruginosa PA103 strain (Pseudomonas aeruginosa); remark: listed apart in the source
[3] = biological target: PA4710 protein on the cell surface of Pseudomonas aeruginosa PA103 strain (Pseudomonas aeruginosa); remark: listed apart in the source

negative control IgG fraction purified from control rat sera obtained by administering only adjuvant (antibody)
absorbance at 450 nm [1]: 0.28 absorbance
absorbance at 450 nm [2]: 0.244 absorbance
absorbance at 450 nm [3]: 0.092 absorbance
